This is an account of results in patent US20230106131A1.

Test [1] addresses GST-MDM2 (human MDM2 residues 17-125) (human) (UniProt Q00987). Description: ratio of KD values of FITC-labeled peptides.
The target is the same in test [2]. Description: direct binding of the FITC-labeled peptide to MDM2.

Sequence of GST-MDM2 (human MDM2 residues 17-125) (human) (Q00987 17-125): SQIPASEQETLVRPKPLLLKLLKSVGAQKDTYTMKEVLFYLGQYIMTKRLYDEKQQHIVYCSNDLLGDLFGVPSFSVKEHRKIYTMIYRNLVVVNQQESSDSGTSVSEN

With “peptide 9, Ac-LTFhCHYWhCQLTS-miniPEG-K(FITC)-NH2, stapled with BBA-CPP9”, the fold decrease of affinity against peptide 8 in test [1] was found to be 8 fold. For the same substance, in test [2], the Kd (usually the constant that tells how readily two partners part at equilibrium) was determined as 114 nM.
